According to US20240240209A1, “SYNTHESIS OF ENANTIOPURE CIS-A-IRONE FROM A RENEWABLE CARBON SOURCE” (Agency for Science, Technology and Research, priority 2021, published 2024):
Residue numbers refer to the chain shown, from its start. Numbers in names are those of the source. Entries after “also recorded” stand apart in the source; their conditions may differ.

Assay: Cell lysate reaction of pMT enzymes with psi-ionone, irones quantified by HS-SPME-GCMS
Assay type: biochemical
Settings: for irone production / methyltransferase activity towards psi-ionone (in words): cell lysate reaction, vs parent or control; for cis-α-irone content (percentage of cis-α-irone in the irone mixture): cell extracts with psi-ionone; for fold change in cis-α-irone produced: AUC vs non-mutated (=1); for improvement of total turnover number (TTN): vs pMT1, TTN = cis-α-irone produced / soluble pMT enzyme
Description: Using the structure of pMT1 in complex with the cofactor S-adenosyl-L-homocysteine (SAH) and the substrate teleocidin A1 (PDB id: 5GM2) as a template, pMT1 bound to each of the four isomers of α-irone was modelled with the aim of identifying amino acid residues that could be critical to increase cis-α-irone or decrease trans-α-irone production (FIGS. 2d and 2e). […] Site-directed mutagenesis of the 24 residues was carried out with degenerative primers. Subsequently, the mutants of each site were pooled together, and examined if the activity or product-selectivity of the pooled mutants were increased (FIG. 8). This reduced the number of screening reactions to 24, which is manageable when a high-throughput enzymatic assay is not available. […] One residue was chosen and subjected to site-saturation mutagenesis by using degenerative primers containing NNN or NNK. The plasmid library was then transformed into E. coli BL21 (DE3) cells and plated on agar plate containing autoinduction media^19. […] Subsequently, the colonies were collected and resuspended in phosphate saline buffer. Equal number of cells was taken for lysis and cell lysate reactions were carried out in capped SPME-GC vials at 28° C. for 2 days. HS-SPME-GCMS analysis was used to quantify the amount of irones produced by each pooled-colony reaction. […] 24 residues including the control Gly85 (G85m) were subjected to site-saturation mutagenesis, using pMT1 as the template. […] The amount of cis-α-irone produced was estimated based on the area under the gas chromatogram curve (AUC). The fold change is calculated by comparing the AUC of cis-α-irone produced by the mutant enzyme to that of non-mutated.
For each pMT mutant, it was transformed into BL21 and grown in autoinduction media with 5 mM lactose at 20° C. for 36 hrs. Then, cells were pelleted and concentrated 10 times by adding 1 ml of PBS. The OD600 was measured and 40*600 OD*ul cells were transferred into a new 1.5 ml tube. The cells were spun down and resuspended in 600 μl of lysis buffer (1×DNase buffer, 150 mM NaCl, 0.5% glycerol, 1 mg/ml lysozyme and 20U of DNasel). The cells were incubated for 2 hrs at 20° C. with shaking at 300 rpm. Following that, 2 cycles of freeze-thaw was done to completely lyse the cells. At the end of the 2nd thawing, the cell lysate was used to setup a 1 ml reaction in 2 ml GC vials. The reaction consisted of 50 mM Tris (pH7), 10 mM MgCl2, 60 mM NaCl, 0.2 mM SAM and 10 mg/L of psi-ionone and caryophyllene each. To this, 500 μl of cell lysate was added while the remaining 100 μl was used for SDS-PAGE to analyze the total and soluble protein expression. The reaction was incubated for 2 days at 28° C., 300 rpm prior to extraction of cis-α-irone with 500 μl hexane. From this, 20 μl of organic layer was taken into 180 μl hexane for GCMS analysis.
For the mutant pMT activity screening, the reactants and products were analyzed by head space solid phase microextraction (HS-SPME) coupled with an Agilent 5977B gas chromatography (GC) system equipped with Agilent DB-5 ms column (30 m×250 μm×0.25 μm) and mass spectrometry (MS) with high efficiency source. The reaction mixtures were carried out in SPME vials which were incubated at 60° C. for 20 mins to allow the release of volatile compounds. The absorbent fiber (50/30 μm divinylbenzol/carboxen/polydimethyl-SPME fiber, SUPELCO) was then exposed to the headspace of the vial for 20 mins. The extracted analytes were desorbed at the GC inlet at 250° C. for 1 min and injected into GC with a split ratio of 200:1. The GC oven temperature increased from 50° C. to 140° C. at a rate of 10° C./min and held at 140° C. for 10 min. Subsequently, the temperature was increased to 320° C. at a rate of 60° C./min and held at 320° C. for 2 mins.

B1: SaMT: methyltransferase from Streptomyces albireticuli, about 68% sequence identity to pMT1 (protein, listed as Streptomyces albireticuli)
chain: MPQESAQELKVTADEVGDWYDRFGDIYHETLGESVHCGLWFPPDEPHPTSMDLVDLSSRAQDRYTDYLIETLDPRPGDHVLDIGCGTGRSALRLVQQRDARVTGVAISKEQIARADRLANEHGLTDRLTFAYADAQALPYEDGTFDRAWAVESICHMDRAKALQEAWRVLRPGGDLMVLESVLTGELTAEDTAVFQVMLASNLPPTLPEFFGLVGDAGFETLELKDLSANLAMTMNVMALVCHDRKEEFTERFGAEFMEGVVQGLPKAREVVARKTRFFLVMLRKPLA
irone production / methyltransferase activity towards psi-ionone (in words): converted psi-ionone to predominantly trans-α-irone

B2: ScMT: about 66% homologous enzyme from Streptomyces clavuligerus (protein, listed as Streptomyces clavuligerus)
chain: MPQELAGELRVTAAQVGAWYDQFGDIYHQTLGESIHCGLWFPPDEPHPARVDLVSLSSEAQDRFTDYLIKTLDPHADQHVLDIGCGTGRSALRLSQQRGAKVTGVAISKVQIEHANRLAETHDLSDRLVFEHADAMHLPYEDESFDSAWAIESLCHMDRAKALREAYRVLRPGGDFLLLESVLTNPLTEAEATSLDTMLAANTPLWLPEFFELITRAGFETLELKDLSANLAMTMNVLELVCHDRREEFTRRFGAEFTELLMAGLPEARNITARKTRFFMLLLRKPPVPAN
irone production / methyltransferase activity towards psi-ionone (in words): not active towards psi-ionone

B3: pMT11: pMT1 with Y200F S182E L273V L180A A202L Y65F C156D T91P (protein)
chain: MPQEARTPQQQVTADEVGDWYDKFGEVYHLTLGESVHCGLWFPPDAPVPQDMELVTMSSQAQDRFTDYLIETLDPKAGQHLLDIGCGTGRPALKAARQRGIAVTGVAVSKEQIAAANRLAAGHGLTERLTFEVADAMRLPYEDESFDCAWAIESLDHMDRAKALGEAWRVLKPGGDLLVAEEVVTEELTEPETALFETLFALNVPPRLGEFFDIVSGAGFHTLSLKDLSANLAMTMNVFALGVYSRRAEFTERFGAEFVDGLLAGLGSAQETVIRKTRFFMATLRKPAV
modifications: Modified from pMT1
notes: pMT1 with Y200F S182E L273V L180A A202L Y65F C156D T91P
irone production / methyltransferase activity towards psi-ionone (in words): improved cis-α-irone production both by the fold change and percentage

B4: pMT5: pMT1 with Y200F S182E L273V L180A (protein)
chain: B3 chain with F65Y, P91T, D156C, L202A
modifications: Modified from pMT1
notes: pMT1 with Y200F S182E L273V L180A
cis-α-irone content (percentage of cis-α-irone in the irone mixture): ~90%
fold change in cis-α-irone produced (pMT4_L180 mutants): 1.8
fold change in cis-α-irone produced (pMT5_A102 mutants): 1.0
fold change in cis-α-irone produced (pMT5_A202 mutants): 1.0
fold change in cis-α-irone produced (pMT5_T104 mutants): 1

B5: pMT2: pMT1 with Y200F (protein)
chain: B3 chain with F65Y, P91T, D156C, A180L, E182S, L202A, V273L
modifications: Modified from pMT1
notes: pMT1 with Y200F
cis-α-irone content (percentage of cis-α-irone in the irone mixture): ~68%
fold change in cis-α-irone produced (pMT1_Y200 mutants): 12.2
fold change in cis-α-irone produced (pMT2_C156 mutants): 1.0
fold change in cis-α-irone produced (pMT2_F196 mutants): 1.0
fold change in cis-α-irone produced (pMT2_L180 mutants): 1.0
fold change in cis-α-irone produced (pMT2_L232 mutants): 1.0
fold change in cis-α-irone produced (pMT2_M236 mutants): 1.0
fold change in cis-α-irone produced (pMT2_S182 mutants): 1.0
fold change in cis-α-irone produced (pMT2_T277 mutants): 1.0
fold change in cis-α-irone produced (pMT2_V36 mutants): 1.0
improvement of total turnover number (TTN): > 12 fold

B6: pMT1_Y200L: pMT1 with Y200L (protein)
chain: B3 chain with F65Y, P91T, D156C, A180L, E182S, F200L, L202A, V273L
irone production / methyltransferase activity towards psi-ionone (in words): improved trans-α-irone production
fold change in cis-α-irone produced (pMT1_Y200 mutants): 0.4

B7: pMT4: pMT1 with Y200F S182E L273V (protein)
chain: B3 chain with F65Y, P91T, D156C, A180L, L202A
modifications: Modified from pMT1
notes: pMT1 with Y200F S182E L273V
cis-α-irone content (percentage of cis-α-irone in the irone mixture): ~80%
irone production / methyltransferase activity towards psi-ionone (in words): highest cis-α-irone and lowest trans-α-irone production
fold change in cis-α-irone produced (pMT3_L273 mutants): 1.5
fold change in cis-α-irone produced (pMT4_L180 mutants): 1
fold change in cis-α-irone produced (pMT4_T277 mutants): 1.0

B8: pMT3: pMT1 with Y200F S182E (protein)
chain: B3 chain with F65Y, P91T, D156C, A180L, L202A, V273L
modifications: Modified from pMT1
notes: pMT1 with Y200F S182E
cis-α-irone content (percentage of cis-α-irone in the irone mixture): 74%
irone production / methyltransferase activity towards psi-ionone (in words): significant increase in cis-α-irone was detected; also recorded: predominantly 1R5S was produced
fold change in cis-α-irone produced (pMT2_S182 mutants): 5.4
fold change in cis-α-irone produced (pMT3_E153 mutants): 1.0
fold change in cis-α-irone produced (pMT3_L273 mutants): 1.0
improvement of total turnover number (TTN): more than 1,000 fold

B9: P191S: pMT12 with P191S (protein)
chain: B3 chain with P191S, N231D
modifications: Modified from pMT1
in-vitro production of cis-α-irone (in words) (single mutations vs parent (pMT7 or pMT12)): moderate increase

B10: pMT14: pMT13 with E197R (protein)
chain: B3 chain with E197R, N231D, Y244A, S245A, G267P
modifications: Modified from pMT1
notes: pMT13 with E197R
irone production / methyltransferase activity towards psi-ionone (in words): reduced the fold change of cis-α-irone to a similar level as pMT10

B11: pMT13: pMT12 with Y244A S245A G267P (protein)
chain: B3 chain with N231D, Y244A, S245A, G267P
modifications: Modified from pMT1
notes: pMT12 with Y244A S245A G267P
irone production / methyltransferase activity towards psi-ionone (in words): maintained the percentage of cis-α-irone produced while further improving the absolute amount produced
